From patent US5871732

How the values were obtained:
[1] = molecular target: recombinant soluble CD4 (human CD4 AA1-AA375) (human) (UniProt P01730); assay: RIA, immobilised antibody; 125I-rsCD4 preincubated with the competitor HIV r-gp120 (2.5 µg/ml)
[2] = molecular target: recombinant soluble CD4 (human CD4 AA1-AA375) (human) (UniProt P01730); assay: RIA, immobilised antibody; 125I-rsCD4 preincubated with the soluble competitor OKT4A
[3] = molecular target: recombinant soluble CD4 (human CD4 AA1-AA375) (human) (UniProt P01730); assay: RIA, immobilised antibody; 125I-rsCD4 preincubated with the soluble competitor OKT4
[4] = molecular target: recombinant soluble CD4 (human CD4 AA1-AA375) (human) (UniProt P01730); assay: RIA, 125I-rsCD4 preincubated with the soluble antibody; competitor: immobilised 5A8
[5] = molecular target: CD4-V1 polypeptide (AA1-AA113 and/or AA1-AA111 of human CD4) (human) (UniProt P01730); assay: RIA, antibody captured on goat anti-mouse IgG; CD4-V1 (5 µg/ml) competing with 125I-rsCD4
[6] = molecular target: CD4-V1V2 polypeptide (AA1-AA180 of human CD4) (human) (UniProt P01730); assay: RIA, antibody captured on goat anti-mouse IgG; CD4-V1V2 (5 µg/ml) competing with 125I-rsCD4
[7] = molecular target: recombinant soluble CD4 (human CD4 AA1-AA375) (human) (UniProt P01730); assay: RIA, immobilised antibody; 125I-rsCD4 preincubated with the soluble competitor Leu3A
[8] = molecular target: mouse/human substitution mutant of rsCD4 at AA220-AA226 (V3) (human) (UniProt P01730); assay: mutant rsCD4 (1 µg/ml) as competitor of OKT4 binding to CD4+ cells
[9] = molecular target: mouse/human substitution mutant of rsCD4 at AA240-AA252 (V3) (human) (UniProt P01730); assay: as above
[10] = molecular target: mouse/human substitution mutant of rsCD4 at AA60 (V1) (human) (UniProt P01730); assay: as above
[11] = molecular target: mouse/human substitution mutant of rsCD4 at AA121-AA124 (V2) (human) (UniProt P01730); assay: as above
[12] = molecular target: mouse/human substitution mutant of rsCD4 at AA165 (V2) (human) (UniProt P01730); assay: as above
[13] = molecular target: mouse/human substitution mutant of rsCD4 at AA127-AA134 (V2) (human) (UniProt P01730); assay: as above
[14] = molecular target: human CD4 displayed on the surface of CD4+ cells (human) (UniProt P01730)

Substance	HIV r-gp120 % Inhibition rsCD4 Binding [1] [%]	% Inhibition rsCD4 Binding By OKT4A [2] [%]	% Inhibition rsCD4 Binding By OKT4 [3] [%]	% Inhibition rsCD4 Binding [4] [%]	CD4-V1 % Inhibition of rsCD4 Binding [5] [%]	CD4-V1V2 % Inhibition of rsCD4 Binding [6] [%]	% Inhibition rsCD4 Binding By Leu 3A [7] [%]	% blocking of OKT4 binding to CD4+ cells [8] [%]	% blocking of OKT4 binding to CD4+ cells [9] [%]	% blocking of OKT4 binding to CD4+ cells [10] [%]	% blocking of OKT4 binding to CD4+ cells [11] [%]	% blocking of OKT4 binding to CD4+ cells [12] [%]	% blocking of OKT4 binding to CD4+ cells [13] [%]	concentration inhibiting syncytia formation 50% [14] [µg/mL]
OKT4, CD4 V3V4-specific anti-CD4 mouse monoclonal antibody (Ortho Diagnostic Systems)	-8.2	3.6	91.3	4	-5.5	14.4	8.4	60	60	60	60	60	60	–
Leu3A, CD4 V1-specific monoclonal antibody (Becton Dickinson)	85.1	73.9	-10.3	0	88.2	94	85.8	–	–	–	–	–	–	0.02
OKT4A, CD4 V1-specific anti-CD4 mouse monoclonal antibody (Ortho Diagnostic Systems)	66.1	68.5	-26.8	–	87.3	95.5	62	–	–	–	–	–	–	–
